Assays:
[1] = target: T1, FcγRIa extracellular domain with C-terminal His tag (human, UniProt P12314 16-292); test: SPR (Biacore), antibody captured on antigen peptide chip, FcγR as analyte; binding relative to GpH7-A5/GpH7-B3/GpL16-k0 = 100
T1 construct: extracellular domain; Soluble receptor expressed in FreeStyle293 cells; analyte in Biacore; also called FcgRI; FcgRIa; not shown: His tag at the C terminus

[2] = target: T2, FcγRIIb extracellular domain with C-terminal His tag (human, UniProt P31994 43-217); test: as above
T2 construct: extracellular domain; Soluble receptor expressed in FreeStyle293 cells; analyte in Biacore; also called FcgRIIb; 2b; not shown: His tag at the C terminus
T2 sequence (looked up): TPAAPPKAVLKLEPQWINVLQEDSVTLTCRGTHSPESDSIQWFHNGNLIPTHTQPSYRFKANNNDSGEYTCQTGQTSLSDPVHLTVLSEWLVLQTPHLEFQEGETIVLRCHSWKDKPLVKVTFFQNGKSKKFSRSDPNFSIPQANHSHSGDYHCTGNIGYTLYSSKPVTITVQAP

[3] = target: T1, FcγRIa extracellular domain with …; test: SPR (Biacore); He/Con_1a divided by He/Con_2b (FcγRIIb)
Procedure, shortened: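 Biacore T100, HBS-EP+ running buffer, 25° C: heterodimerized antibodies captured on antigen-peptide chips (CM5 amine-coupled or SA biotinylated), His-tagged FcγR extracellular domains injected as analyte.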

T1 sequence (P12314 16-292): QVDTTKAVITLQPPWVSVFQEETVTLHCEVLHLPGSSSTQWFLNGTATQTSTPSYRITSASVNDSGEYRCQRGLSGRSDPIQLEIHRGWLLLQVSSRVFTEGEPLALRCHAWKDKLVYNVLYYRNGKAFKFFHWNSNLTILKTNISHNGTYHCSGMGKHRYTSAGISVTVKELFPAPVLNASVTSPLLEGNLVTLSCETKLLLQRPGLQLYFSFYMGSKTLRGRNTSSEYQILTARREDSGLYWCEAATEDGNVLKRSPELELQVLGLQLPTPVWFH

Row | Binder | He/Con_1a (Ia binding) [1] | He/Con_2b (IIb binding) [2] | He_1a/2b (Ia/IIb) [3]
1 | GpH7-A5/GpH7-B3 variant P329_03V/GpL16-k0 (antibody, human IgG1, kappa, He Ab: heterodimerized anti-glypican-3 IgG1, substitution in one H chain only; also called He Ab P329V) heavy 1: not shown heavy 2: not shown light: DIVMTQSPLSLPVTPGEPASISCQASESLVHSNRNTYLHWYLQKPGQSPQLLIYKVSNRFSGVPDRFSGSGSGTDFTLKISRVEAEDVGVYYCSQNTHVPPTFGQGTKVEIERTVAAPSVFIFPPSDEQLKSGTASVVCLLNNFYPREAKVQWKVDNALQSGNSQESVTEQDSKDSTYSLSSTLTLSKADYEKHKVYACEVTHQGLSSPVTKSFNRGEC | 97.4 % of control (control = 100) | 38.5 % of control (control = 100) | 2.53
2 | GpH7-A5/GpH7-B3 variant P329_04F/GpL16-k0 (antibody, human IgG1, kappa, He Ab: heterodimerized anti-glypican-3 IgG1, substitution in one H chain only; also called He Ab P329F) heavy 1: not shown heavy 2: not shown light: DIVMTQSPLSLPVTPGEPASISCQASESLVHSNRNTYLHWYLQKPGQSPQLLIYKVSNRFSGVPDRFSGSGSGTDFTLKISRVEAEDVGVYYCSQNTHVPPTFGQGTKVEIERTVAAPSVFIFPPSDEQLKSGTASVVCLLNNFYPREAKVQWKVDNALQSGNSQESVTEQDSKDSTYSLSSTLTLSKADYEKHKVYACEVTHQGLSSPVTKSFNRGEC | 92.7 % of control (control = 100) | 32.2 % of control (control = 100) | 2.88
3 | GpH7-A5/GpH7-B3 variant P329_06M/GpL16-k0 (antibody, human IgG1, kappa, He Ab: heterodimerized anti-glypican-3 IgG1, substitution in one H chain only; also called He Ab P329M) heavy 1: not shown heavy 2: not shown light: DIVMTQSPLSLPVTPGEPASISCQASESLVHSNRNTYLHWYLQKPGQSPQLLIYKVSNRFSGVPDRFSGSGSGTDFTLKISRVEAEDVGVYYCSQNTHVPPTFGQGTKVEIERTVAAPSVFIFPPSDEQLKSGTASVVCLLNNFYPREAKVQWKVDNALQSGNSQESVTEQDSKDSTYSLSSTLTLSKADYEKHKVYACEVTHQGLSSPVTKSFNRGEC | 85.3 % of control (control = 100) | 29.1 % of control (control = 100) | 2.94
4 | GpH7-A5/GpH7-B3 variant P329_07I/GpL16-k0 (antibody, human IgG1, kappa, He Ab: heterodimerized anti-glypican-3 IgG1, substitution in one H chain only; also called He Ab P329I) heavy 1: not shown heavy 2: not shown light: DIVMTQSPLSLPVTPGEPASISCQASESLVHSNRNTYLHWYLQKPGQSPQLLIYKVSNRFSGVPDRFSGSGSGTDFTLKISRVEAEDVGVYYCSQNTHVPPTFGQGTKVEIERTVAAPSVFIFPPSDEQLKSGTASVVCLLNNFYPREAKVQWKVDNALQSGNSQESVTEQDSKDSTYSLSSTLTLSKADYEKHKVYACEVTHQGLSSPVTKSFNRGEC | 94.1 % of control (control = 100) | 34.6 % of control (control = 100) | 2.72
5 | GpH7-A5/GpH7-B3 variant P329_08L/GpL16-k0 (antibody, human IgG1, kappa, He Ab: heterodimerized anti-glypican-3 IgG1, substitution in one H chain only; also called He Ab P329L) heavy 1: not shown heavy 2: not shown light: DIVMTQSPLSLPVTPGEPASISCQASESLVHSNRNTYLHWYLQKPGQSPQLLIYKVSNRFSGVPDRFSGSGSGTDFTLKISRVEAEDVGVYYCSQNTHVPPTFGQGTKVEIERTVAAPSVFIFPPSDEQLKSGTASVVCLLNNFYPREAKVQWKVDNALQSGNSQESVTEQDSKDSTYSLSSTLTLSKADYEKHKVYACEVTHQGLSSPVTKSFNRGEC | 85.7 % of control (control = 100) | 29.1 % of control (control = 100) | 2.95
6 | GpH7-A5/GpH7-B3 variant P329_09D/GpL16-k0 (antibody, human IgG1, kappa, He Ab: substitution in one H chain only; also called He Ab P329D) heavy 1: not shown heavy 2: not shown light: DIVMTQSPLSLPVTPGEPASISCQASESLVHSNRNTYLHWYLQKPGQSPQLLIYKVSNRFSGVPDRFSGSGSGTDFTLKISRVEAEDVGVYYCSQNTHVPPTFGQGTKVEIERTVAAPSVFIFPPSDEQLKSGTASVVCLLNNFYPREAKVQWKVDNALQSGNSQESVTEQDSKDSTYSLSSTLTLSKADYEKHKVYACEVTHQGLSSPVTKSFNRGEC | 77.6 % of control (control = 100) | 53.5 % of control (control = 100) | 1.45
7 | GpH7-A5/GpH7-B3 variant P329_10E/GpL16-k0 (antibody, human IgG1, kappa, He Ab: substitution in one H chain only; also called He Ab P329E) heavy 1: not shown heavy 2: not shown light: DIVMTQSPLSLPVTPGEPASISCQASESLVHSNRNTYLHWYLQKPGQSPQLLIYKVSNRFSGVPDRFSGSGSGTDFTLKISRVEAEDVGVYYCSQNTHVPPTFGQGTKVEIERTVAAPSVFIFPPSDEQLKSGTASVVCLLNNFYPREAKVQWKVDNALQSGNSQESVTEQDSKDSTYSLSSTLTLSKADYEKHKVYACEVTHQGLSSPVTKSFNRGEC | 78.8 % of control (control = 100) | 52.7 % of control (control = 100) | 1.5
8 | GpH7-A5/GpH7-B3 variant P329_11K/GpL16-k0 (antibody, human IgG1, kappa, He Ab: substitution in one H chain only; also called He Ab P329K) heavy 1: not shown heavy 2: not shown light: DIVMTQSPLSLPVTPGEPASISCQASESLVHSNRNTYLHWYLQKPGQSPQLLIYKVSNRFSGVPDRFSGSGSGTDFTLKISRVEAEDVGVYYCSQNTHVPPTFGQGTKVEIERTVAAPSVFIFPPSDEQLKSGTASVVCLLNNFYPREAKVQWKVDNALQSGNSQESVTEQDSKDSTYSLSSTLTLSKADYEKHKVYACEVTHQGLSSPVTKSFNRGEC | 70.4 % of control (control = 100) | 16.9 % of control (control = 100) | 4.17

From patent US20180155451A1 (published 2018)
